The results in this text go back to the supplement of paper PMC12455559.

± gives the standard deviation of the averaged measurements.

Data set [1] in a line: melting temperature (DSF); higher = more thermostable. The method in brief:
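On a Bio-Rad CFX96, fluorescence of 45 μL enzyme (0 to 0.3 mg/mL) mixed with 5 μL 5X Sypro Orange in sealed PCR plates was followed from 25 °C through 250 cycles of 0.3 °C, with a 0.3 °C/s ramp. The enzymes had been expressed in E. coli C41(DE3), taken up on nickel beads and released by SUMO protease. Melting temperature, measured by differential scanning fluorimetry, is the value given.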

The nature of data set [2]: purified protein yield per well (BCA); higher = higher soluble expression. The method in brief: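 The measured quantity is purified protein yield per well, determined with the Pierce Rapid Gold BCA kit. Anything below 25 ug (0.1 mg/mL) lies under the detection threshold. Enzymes were expressed in E. coli C41(DE3) in 2 mL autoinduction cultures with 100 µg/mL kanamycin at 37 °C for 2 h, then 18 °C for 40 h, and purified on an OT-2 robot using Ni-charged magnetic beads and SUMO protease release.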

A short description of data set [3]: PET hydrolysis, aromatic products released after 48 h (umol product/mg enzyme); higher = more PET depolymerization activity. Summed up:
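Reactions ran in sealed plates without shaking for 48 h at 40 or 60 °C. Each held 3.5 mg amorphous PET film or crystalline PET powder, 450 μL buffer and 5 μg (50 μL) of tagless, SUMO-cleaved, nickel-purified candidate enzyme. Buffers were 50 mM NaCitrate at pH 4.5 or 5.5, 50 mM NaPhosphate at pH 6.5 or 7.5, and glycine at pH 8.5. The supernatant's aromatic product, read at 260 and 280 nm against buffer blanks, gives PET hydrolysis activity per mg enzyme.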

The mark [4] stands for this setting: substrate: aFilm, 40 °C, pH 5.5.
The mark [5] stands for this setting: substrate: aFilm, 40 °C, pH 6.5.
Setting [6] is: substrate: aFilm, 40 °C, pH 7.5.
The mark [7] stands for this setting: substrate: aFilm, 60 °C, pH 5.5.
The mark [8] stands for this setting: substrate: aFilm, 60 °C, pH 6.5.
Where [9] appears, read: substrate: aFilm, 60 °C, pH 7.5.
[10] abbreviates: substrate: cryPow, 40 °C, pH 4.5.
The mark [11] stands for this setting: substrate: cryPow, 40 °C, pH 5.5.
Where [12] appears, read: substrate: cryPow, 40 °C, pH 6.5.
[13] abbreviates: substrate: cryPow, 40 °C, pH 7.5.
The mark [14] stands for this setting: substrate: cryPow, 60 °C, pH 4.5.
The mark [15] stands for this setting: substrate: cryPow, 60 °C, pH 5.5.
Where [16] appears, read: substrate: cryPow, 60 °C, pH 6.5.
Where [17] appears, read: substrate: cryPow, 60 °C, pH 7.5.
The mark [18] stands for this setting: substrate: cryPow, 40 °C, pH 8.5.

For the sequence “QAPDRTALARTGPYQVAYYTQLPPAAEFSAATLFFPANKAQAFGGVVIAPGYTEKQVNVQWWGYHLASHGYAVLVLDTNDPEEYPDRRADALMAGVAVLRGENTRMGSTLRGKILEGRIALMGHSMGGGGTLLAANGHSDQLKTIIPFTPWLPGADFSAVSVPTLVLAGEIDRIAAVKDHAWPHYESLTGAVPRMYLEVKGGNHYIANSMTDREDRNPNIDVHDLVGSMVVAWLKTFLDDDESYRELVFGDLPEADRVRISRLEFVE [TEP006]”, the melting temperature in data set [1] stood at 53.5 C. The “purified protein yield per well” value in data set [2] was determined as 215 µg. The PET hydrolysis in data set [3] (substrate: aFilm, 40 °C, pH 4.5) was < 3; in data set [3] (setting [4]) it was < 3; in data set [3] (setting [5]), < 3; in data set [3] (setting [6]), < 3; in data set [3] (substrate: aFilm, 60 °C, pH 4.5), < 3; in data set [3] (setting [7]) it was < 3. Moreover, the PET hydrolysis in data set [3] (setting [8]), in data set [3] (setting [9]), in data set [3] (setting [10]), in data set [3] (setting [11]), in data set [3] (setting [12]) and in data set [3] (setting [13]) was < 3 throughout. Moreover, the PET hydrolysis in data set [3] (setting [14]), in data set [3] (setting [15]), in data set [3] (setting [16]) and in data set [3] (setting [17]) was < 3 throughout.

“LFDNNGNKKQAYDATLSALNAGGTPVSPSPSVSPTAGPSPSTSPSPSPPPGDNPYQRGPDPTRDSVAANRGTFATAEMSVSPGNGFNGGSIYYPTDTSQGTFGAVAIVPGYTARFADEEAWMGHWLASFGFVVIGVETNSTNDFDTARGTQLLAALDWLTQSSPVRDRIDASRQSVIGHSMGGGGALHAAGNRSSLKAAVGLTPFMPSGTPANNQVPTLMIAGTNDTVVAPSYVTDLYNALPSSTERAYMEFVGADHLFPTRPNNLEMRILIPWLKTFVDSDSRYTQFLCPLMDSSGIAGYRNSCPLLPDQPTPPPTPTPSPTTPTPDPTTPGPGTCTATMSTGQVWGDRYNTSVTVTGTSNWTVVVAITPPQRISATWNGNPTWDSSGNVMTIRANGNGNVFGFTTMFNGNSWARPQIRSCTAG [DP081]” returned a melting temperature in data set [1] of 57.1 C. Besides, in data set [2], the “purified protein yield per well” value is 244 µg. The PET hydrolysis in data set [3] (setting [4]) is < 3; in data set [3] (setting [5]), < 3; in data set [3] (setting [6]) it was < 3; in data set [3] (substrate: aFilm, 40 °C, pH 8.5), < 3; in data set [3] (setting [7]) it was < 3; in data set [3] (setting [8]) it was < 3. The PET hydrolysis in data set [3] (setting [9]) is < 3; in data set [3] (substrate: aFilm, 60 °C, pH 8.5), < 3; in data set [3] (setting [11]) it was 7.5 ± 0.71; in data set [3] (setting [12]), 21 ± 2.8; in data set [3] (setting [13]), 14.5 ± 0.71; in data set [3] (setting [18]) it was 12.5 ± 2.1. Moreover, the PET hydrolysis was < 3 in data set [3] (setting [15]); < 3 in data set [3] (setting [16]); < 3 in data set [3] (setting [17]); < 3 in data set [3] (substrate: cryPow, 60 °C, pH 8.5).

In data set [1], “DDGYQRGPDPTEESIEAPRGTFEIGMAVVTRASADGFGGGTVYYPTDTSEGTFGAVAVSPGYSSSQAAIAWLGPRLASQGFVVFTIDTLSTSDSPTRRGDQVLAALSFLGRTELADRIDPDRLAVMGHSMGGGGSLEAAKDYPALQAIVPMTPWSVDKTFPEVTAPTLVIGAEDDVVARPRSHAEPIYESLPADGDKAYLELRDASHSAPSAPNTLIARYSLSWLKRYVDDDERYQQFLCPPPAVDDEISEYRSTCA [DP089]” came in with a melting temperature of 52 C. In data set [2], the “purified protein yield per well” value was < 25 µg. The PET hydrolysis in data set [3] (setting [11]) was < 3; in data set [3] (setting [12]), 4; in data set [3] (setting [13]), 19; in data set [3] (setting [18]) it was 20.

In data set [1], “AENPYQRGPDPTLAALAASAGPYPIMETVVGSAEVTNFGGASIYYPAGTADGTFGGVAVTPGFLGPRSTMEWVARRVASHGFVVINIDTLERNDTPPLRARQMLAALDYLTGASAVRDRVDPTRLAVMGHSMGGGGSLQASRQRPQLKAAVPLTPWSNDKDFSADVVPTLIIGAELDDTAPVAEHAEPFFESIAAARKAYLELNDAEHRAPIRTNETIGTYSVAWLKRFVDDDTRYEQFLCPPPAPSAAIEEFRGTCPSS [TEP106]” showed a melting temperature of 41.5 C. Further, the “purified protein yield per well” value in data set [2] is 87.7 µg. Besides, the PET hydrolysis in data set [3] (setting [10]), in data set [3] (setting [11]), in data set [3] (setting [12]), in data set [3] (setting [13]), in data set [3] (setting [14]) and in data set [3] (setting [15]) was < 3 each time. Besides, the PET hydrolysis in data set [3] (setting [16]) and in data set [3] (setting [17]) was < 3 throughout.

For “ATYERGPAPTAQSIVADGPFSYATVAVPTQSSFGGGTIYYPTDTNQGTFGAVAVIPGFVGSLDNVAWIGSRLASHGFVVFTVATTNPFAFPGDRAAQLQAALTYLTQSSSVRDRVDPNRLAVAGHSMGGGGALEAVRNNPALKAAVALQPWDFGQNFSAIAVPSMIVGAQNDQVATVTSHSEPFYDQIPAGAEKAYLELAGAGHDAGQSVSNATQAGSMLSWLKRYVDEDTRYEQFLCPAPSGPSVAEYRDTCPA [DP045]”, in data set [1], the melting temperature was 45.7 C. Further, the “purified protein yield per well” value in data set [2] stood at 37 µg. The PET hydrolysis in data set [3] (setting [11]), in data set [3] (setting [12]), in data set [3] (setting [13]) and in data set [3] (setting [18]) was < 3 in each case.

In data set [1], “FSAPGPSAPCSNCTRGPAPTVASLKASSGPFSTAKFSVSGYLKGFGNSTVYYPTNTSGKMGAIAVIPGYLSYESSIEWWGPRLASHGFVVMTMNTNSIYDQPDSRATQLSKALDYLISQSGSSSSPIYGKVDSSRLGAIGWSMGGGGSLKLSTQRSINAIIPQAPWYLGSNTFNTIKTPALILACSADTVAPVYQHASPFYNRIPTSTPKAFLEIYGGSHFCANSGYPNEDLLGMYGIAWMKRFIDFDSRYSQFLCGPNHESDYAISEYRQNCPY [ESM017]” showed a melting temperature of 56.5 C. In addition, in data set [2], the “purified protein yield per well” value stood at 53.8 µg. Further, the PET hydrolysis in data set [3] (setting [10]) is < 3; in data set [3] (setting [11]), < 3; in data set [3] (setting [12]), 11; in data set [3] (setting [13]), 33.

On to “ADNPYQRGPDPTRTSVTAENGPFANTSVSVPTGYGFNGGRIYYPTDTSQGTFGAIAISPGYTALFSAELAWMGPWLASHGFVVIGIETNSRNDFDTARGTQLLAALDYLTQQSPIRDRVDPNRLAVAGHSMGGGGALSAASRRSSLRAVVGIAPYSPSSNLANDRVPTMIFSGQADTVVTPSYATGLYNSLPATTKSVYLEVAGADHGFMVGRSNPVMIRTMLPFVKMFIDNDARYSQFLCPLLDSSGVVTYRSTCPLLPSTPTTPTPTPTDPPTVPPGSANEIVGTQSGRCVDVPNASRNNGTRVQLYDCNKQTNQAWTYTATKQLQVYGNMCLDAAGSGNGAAVQIYSCHSQTNQQWNVNSNGTISSVQSGRCLDAWSTTNGAQIQLYDCHGQTNQQFRLVSLAR [ESM161]”, for which, in data set [1], the melting temperature amounted to 63.1 C. Moreover, the “purified protein yield per well” value in data set [2] stood at 137 µg. Moreover, the PET hydrolysis in data set [3] (setting [10]) is 10; in data set [3] (setting [11]), 13; in data set [3] (setting [12]), 21; in data set [3] (setting [13]) it was 6; in data set [3] (setting [14]) it was < 3; in data set [3] (setting [15]) it was < 3. Further, the PET hydrolysis in data set [3] (setting [16]) and in data set [3] (setting [17]) was < 3 throughout.
